Assay results taken from patent US5958954, “Synthesis and use of retinoid compounds having negative hormone and/or antagonist activities” (Allergan Sales, Inc.).

Columns and labels:
RXR-alpha = RXR-alpha (UniProt P19793 P19793:1-462); assay: EMSA; RXR alone did not produce the receptor-specific shift; settings: tags: reticulocyte lysate from pBluescript(II)(SK) RXR-alpha cDNA; label: end-labeled
Excerpt: (§1) In vitro translated RAR-α was produced essentially as described under Example 8, except that ^35S-labeled methoinine was omitted. In vitro translated RXR-α was similarly produced using a pBluescript(II)(SK)-based vector containing the RXR-α cDNA described by Mangelsdorf, et al. in *Nature* 345:224–229 (1990) as the template for generating in vitro transcripts. The labeled RAR-α and RXR-α, alone or in combination, or prebound with AGN 193109 (10^-6M) either alone or in combination, were allowed to interact with an end-labeled DR-5 RARE double-stranded probe having the sequence 5'-[…]-3' (SEQ ID NO:1). The binding mixture was electrophoresed on a non-denaturing polyacrylamide gel and autoradiographed according to standard laboratory procedures. A single retarded species appearing on the autoradiograph that was common to all the lanes on the gel represented an undefined probe-binding factor present in the reticulocyte lysate. Only the RAR/RXR combination gave rise to a retinoid receptor-specific retarded species. Neither RAR alone nor RXR alone bound the probe to produce this shifted species.

RAR-alpha = target: T1, RAR-alpha (UniProt P10276 P10276:1-462); assay: EMSA; RAR alone did not produce the receptor-specific shift; settings: tags: TNT reticulocyte lysate from pGEM3Z RAR-alpha cDNA; label: end-labeled
T1 sequence: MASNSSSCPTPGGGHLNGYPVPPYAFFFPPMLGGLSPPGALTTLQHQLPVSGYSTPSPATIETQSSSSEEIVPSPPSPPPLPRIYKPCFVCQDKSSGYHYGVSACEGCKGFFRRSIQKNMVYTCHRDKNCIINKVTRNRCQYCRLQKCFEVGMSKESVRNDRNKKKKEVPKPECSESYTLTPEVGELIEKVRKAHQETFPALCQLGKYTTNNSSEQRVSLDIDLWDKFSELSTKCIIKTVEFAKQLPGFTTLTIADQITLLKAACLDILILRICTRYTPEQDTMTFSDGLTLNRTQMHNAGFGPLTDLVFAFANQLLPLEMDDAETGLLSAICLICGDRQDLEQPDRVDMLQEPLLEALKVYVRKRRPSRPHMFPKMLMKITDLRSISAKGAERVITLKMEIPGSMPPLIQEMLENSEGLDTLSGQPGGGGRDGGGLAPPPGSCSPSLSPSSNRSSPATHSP
Excerpt: as §1

Chain of RXR-alpha (P19793 whole entry, one chain of several): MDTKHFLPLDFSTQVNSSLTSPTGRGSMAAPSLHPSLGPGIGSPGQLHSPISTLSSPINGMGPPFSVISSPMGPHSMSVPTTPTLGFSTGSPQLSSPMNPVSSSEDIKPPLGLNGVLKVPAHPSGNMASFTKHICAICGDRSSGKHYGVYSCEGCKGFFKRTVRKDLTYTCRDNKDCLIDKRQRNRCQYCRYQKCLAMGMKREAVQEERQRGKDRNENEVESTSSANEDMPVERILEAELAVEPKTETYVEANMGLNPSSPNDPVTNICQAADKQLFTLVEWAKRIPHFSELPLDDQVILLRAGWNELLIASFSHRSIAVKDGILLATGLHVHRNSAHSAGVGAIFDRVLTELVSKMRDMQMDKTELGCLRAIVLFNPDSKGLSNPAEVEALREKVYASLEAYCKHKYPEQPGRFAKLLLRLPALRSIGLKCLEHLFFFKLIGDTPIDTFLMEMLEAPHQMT

B1: DR-5 RARE probe (dsDNA)
DNA 1: TCAGGTCACCAGGAGGTCAGA
DNA 2: TCTGACCTCCTGGTGACCTGA
binding result (RXR-alpha): no binding | binding result (RAR-alpha): no binding
